Measurements taken from the DeepSol protein solubility set.

Assay: soluble on expression in E. coli; label from the status in PepcDB or PDB records

Sequence | soluble on expression in E. coli
MSLYNDSLFNAFARSFEARSQHDMSMAEYLESCRSDPMKYANAAERLLAAIGEPQTIDTAKDPRLGRIFLNRTIRTYPAFAGFYGMEETIERIVGFFRHAAQGLEERKQILYLLGPVGGGKSSLAERLKSLMEVHPIYVLKAGDELSPVFESPLSLFDPDQLGPMLEEKYGIPRRRLTGLMSPWCYKRLEAFGGDISQFRVAKIQPSRLRQIAIAKTEPGDENNQDISSLVGKVDIRKLETYAQNDPDAYSYSGGLNRANQGILEFVEMFKAPIKMLHPLLTATQEGNYIGTENIGAIPFTGIILAHSNEAEWASFKANKNNEAFIDRICVIKVPYVLRVTEEQKIYEKLIQGSELASAPCAPSTLETMARFSVMSRLRKHENSTVFGKMRVYDGESLKESDPKARSVQEYRDAAGVDEGMDGVSTRFAFKILAATFNHDPQEVAADAVHLMYALEQSIKREQLPEEVEKRYLEFIKADLAPRYAEFIGNEIQKAYLESYSDYGQNLFDRYVDYADAWIEDQDFKDPDTGQLLDRELLNQELTKIEKPAGIANPKDFRNEVVKFSLRSRAQNGGKNPTWTSYEKIRDVIEKRIFSQVEDLLPVISFGSKKDGETEKKHGEFVARMVERGYTERQVRRLVEWYMRVKQAGEGHHHHHH | soluble
MSLYPEKRDGFSRTGKFEVEGRTVQTPAILEVGEIPEWDFGLAPTSLKFISEELYSRLRPINEEVEILTSLHLLSPRQLVQVFEDLSKEGVSPKPLYAASSALPSNVSLLIYLGADLVDNVLAIAKAYSGIYFLGEVEVEISKLRRLPCNCIHCRNRVVDEVENLLETTAKHNTEMLRMEVEKCRRLILNEELRNYVEGKVKLNPEFTAALRLSDSLRNHSTFPRFRKSRCNFSALESSSRFEVRYFFERALECYKPFSDTVLLLPCTARKPYLTSRTHRALRSKVKVNVNEIIISSPLVVPREFELLYPAVNYDTPVTGHWSEEEVSFVAGWLKRFIEKGGFRKVVAHVTGGYRKVVERVEDEVEAEVVYTAEKDVLSDESIERLKQEIESKGKVDLYRRILEHMLSYQFGITWSGKVAGRYPELELLEGKKRLARVDRIYGMLDIYEKIAAYLLEKNIYTVEIGDFEVKGTIFAGGVLRADEKIRPNDVVVFHNSRIFGVGLAAMSGKEMAGSEKGIAINVKRKFSEGHHHHHH | soluble
MSLYSGYGYFYRGKFMKPFESHNKQLKILRRRGMEVPSSAKRDLENENYYNIINGYKDLFLELDVNGNFLVPDKYKQGTHFKEVFSLYKLDRKFRNVLLEYLLVFETHIKSRISYYFSEKYREPHSYLYFKNYSSDTSKTDSIVKMVATFSSVMSNRKNKPLKHYINTHNGVPLWILVNYLTLGNVSKMYSNLDDDLRLEVAKDYKRKLERDYKTRVQITPSDVDSILQQAHMFRNVCAHEERLYDYKIDRAKSRANIFANYNKIYDKEYVPTMNGSYVFDLLISLCLFLNKHDYIKLVKNMDKLISNYSHSFYTITIDDLYTKMNFPDQTKILDMLEGHHHHHH | soluble
MSMIYKNIVCPVCGAACDDIQVEFGDGKIEARNACKMGNAKFQEVVSSHRLRQPLIKVNGRLTAAAWDEALERAADILVSAKRPLLFMGSETSCEAHEVGLKIGEYLGALVDSNATICHGPTAMGIQESGKVGATEGQKKNRGDLIVYWGTNPLESMPRQMSRYGVFPRGYWTKRGRFDRTVITVDPRKTPTTEASDLHVQLKPGSDYELISALLTLLHGKTPHPSVEEITGVPIPVMEEMLDMMKNCNFGAISVGLGLSSSIGKHRNAEIAMNLVKELNNYAKFTLGALRGHCNVAGFNQVASYMYGYPFGLDFMRGHPRYNPGEYTTVDVLREKDVDAAFVMCADLVCHIPADCASYLAEIPMVCLDIAPCPSTAASDVVLPGVIDAMECDGTFYRLDDVAVHFEPFTSSPFEFTKSNEDTLKQLFEKIKARK | not soluble
MSMPATLTKTTKLATSLIDEYALLGWRAMLTEVNLSPKPGLVDRINCGAHKDMALEDFHRSALAIQGWLPRFIEFGACSAEMAPEAVLHGLRPIGMACEGDMFRATAGVNTHKGSIFSLGLLCAAIGRLLQLNQLLTPTTVCSTAASFCRGLTDRELRTNNSQLTAGQRLYQQLGLTGARGEAEAGYPLVINHALPHYLTLLDQGLDPELALLDTLLLLMAINGDTNVASRGGEGGLRWLQREAQTLLQKGGIRTPADLDYLRQFDRECIERNLSPGGSADLLILTWFLAQI | soluble
MSMQHESPIKRRPSTRIYVGDVPIGDGAPIAVQSMTNTRTTDVAATVAQIKSLEKVGADIVRVSVPTMEAAEAFKLIKQQVSVPLVADIHFDYRIALKVAEYGVDCLRINPGNIGNEARIRSVVDCARDKGIPIRIGVNGGSLEKDLQLKYGEPTPEALVESAMRHVDILDRLNFDQFKVSVKASDVFLAVDSYRLLAKKIDQPLHLGITEAGGARAGSVKSAVGLGMLLAEGIGDTLRISLAADPVEEIKVGFDILKSLRIRSRGINFIACPSCSRQEFDVIGTVNALEQRLEDVLTPMDVSIIGCVVNGPGEAEVSHLGLAGSNKKSAFYEDGVRQKERFDNDDLVAQLEAKIRAKAARLDEKNRIDIKHVEQD | not soluble
MSNEMYYVQASDPAILEKGECGGAVTALFKYLLDKGIVDGVLALKKGVDVYDAIPTFVTSSEDLLSTAGSLHCAPTMWGGIIKEYLQDAKIAVPVKPCDMRAIVELAKRAQINLDNVYMIGLNCGGTVPPKTAMEMIKLFYEVDPKDVVKEEIDKGKFIIVMKDGSHKEVKMHDLEDNGYGRRVNCQRCDEKIPRKADIAAGNWGVIGEDAGKYTFMEVCTEKGKQLLKDAEKDGYVKTKAPNPKGLEIRAKVESSMLKMGEDYKNKWLEEKYPTIEEWNRQWNKCIKCYGCRDVCPVCFCRECALTADYVDTGSIPPDPIMFQGVRMSHMAFSCVNCGQCEDVCPMEIPVARIFHKIQEKTRKELGYRPGVDDEAPPALGGSCPTQLEHHHHHH | not soluble
MSNEQPNNPLHGLSLEKIVTRLVEHFGWNGLYERVRVNCFKKDPSIKSSLKFLRKTQWARDKVEALYIETFCLEHHHHHH | not soluble
MSNGNTDPVFDFEDALDQTEMAQLAVDELKKIPEVNTLFAERWLPAPFNLDDLAKLPEGTLGHVYAIEMKARGFDPYFYKKVPVVDDISYLKMLWRSTHDIYHVVAGFDTDGIGEIGLQAFVLAQTPIPISVMLVSFGMVMTSLYQPAKFQDLMAEIARGYSLGSHTPRKLIAQKWDQFWDVPVIEIRECLGMNTVKQRERALEHHHHHH | not soluble
MSNIAKTSEALQARIRELCGDQLREVGTHPGHWDDSAVRHIVRNPPAAYVVWLGHVPGEHPHVVQARWAVYVVANVLDGQRQNDPGIYQLVEKLSAGLHRCRIAPSGTFDVVLRQAAHLSCYRCKTCGPIRKAAWAWRFTACILKRRNRAITGEMMAQTKITLLAPHKHAGKQYQAGEVLSVDEQSAKFILNMGIGKPAEPVRKNPKLNTEDKQNAK | not soluble
MSNIERRHTIMAKGSVRKKGKKWYYRFYVEDASGNLVQKECVGTESKSETEKLLRQAMDDYEKKKFVAKAENLTVGQLLDVWAEEELKTSTLSNGTVENYLGTIRNIKKHPLAERKLKNVTSEHLQSFFDLLSFGGVHPDGKEKKGYSKDYIHSFSAVMQQSFRFAVFPKQYITFNPMQYIKLRYQTDEVDLFSDEDMDGNIQPISREDYERLLAYLQKKNPAAILPIQIAYYAGLRIGEACGLAWQDVNLEEQCLTIRRSIRYDGSKRKYIIGPTKRKKVRVVDFGDTLVEIFRNARKEQLKNRMQYGELYHTNYYKEVKEKNRVYYEYYCLDRTEEVPADYKEISFVCLRPDGCLELPTTLGTVCRKVAKTLEGFEGFHFHQLRHTYTSNLLANGAAPKDVQELLGHSDVSTTMNVYAHSTRDAKRKSVRLLDKVVGND | not soluble
MSNKTKLKDNKELLYQVVLSYKVSHNYPLKAFLIECKNKLNECIDMIWNNIKYTKKDNPKLPKSNEFKRELRNKLLENWNYASHYIDGIIKTSYSILQSWASNYKRGYRTKTKPIAKRLFVRVKTTLIKYDKEKGEIRITIKPRKDYLILNIKNEWFFDKVKNLTIGEIILKEKETFLTFKDNLNYSDKGMIVGVDSNLRSLDLFHPIEGWTRVDLTELHRIKEVYDRKIDFLKKLLKKFPLRAMRKINRLFERRRNRVKDFLHKLTIQLSRLFPDAIFVFEDLNKRRMYKSKYFNRKIDRVNWNGLIEKISYKTIVILVNPAYTSTICPICGSRMESQEGQVVYCSNCLNSFNRQLVGCYNIFKRGLGNIKEIMGGSGVTTTGVEVSFGKLMTPNPNVIYIVDYNGKYFNEIA | soluble
MSNLYTELKNEWSKHAPNLTHCSRLLDGFKLELVRSNFGTIQTASSSKQKDQLIKSREMLEIAVEHSITIKDYAAFERYMAQLNTYYYDYDKYLESSKHMYKFMGLNLLYMLATNRLADFHIELERLPTALLLHDSFIQPVLALENYYMEGRYNKILQAKKSMPSEIYSNFMDILVNTAREEIASCMEKSYLKMAPKLAAQRLGLRPGSKELFELATKRQWCLDEEGNYDYAGLHTRPMEKVPAKDIATHNLTYAQELEKIVLEHHHHHH | not soluble
MSNQKLSDGGACCSPLAREPLTEDWAGDLARMFKALGDPVRLRLLSLIASHAGGEACVCDISESFDLSQPTISHHLKVLRAAGLLDCERRGTWVYYWVIPSALQQLSAVLLTESGTAVPSPTCAEARA | not soluble
MSNRKFNLDNEVQPEIHFRLLSISASKFENDWTSFPHSHHFTEIFFIKDGTGRMLIENESLPVSSNSLVVIGAQVTHTEFSDPENPLDYYVLGVEGLKLNTDKEPEYIHVPASANSPFIRQCFENILREMHNKQDRYAEICQHYLDILILYFCRKDHVSYEVVDAQNSSRECHKVKRFIEHNYQSMISLDSLAENCSLSKYYLSHRFAELYGKSPIAYLNEVRLASARDLLLTTNHSIEEIAGCIGFSSTSYFSQSFQKNFHESPQQFRKSHRVRT | not soluble
MSNSFGIKVIACDKIFYNGRCTQLVLPLRDGSKAIQAHHENMVFSVEVGEIKITKEDGSTIVGVTGTGFAQMVNNRATVIVDTCEYPEEIDLRRAEEAKERAEEQLRQKQSIAEYHISKASLARAMARLKEGSGKGTPYGY | not soluble
MSNSQAGPGASVRRVLAVIPARGGSKGVPAKNLAPVGGVPLVVRAVRECLAARLVTDVVVSTDDQAIAAAAREAGAEVVLRPAAIAGDTATSEAAVLHAMDAHEALHGAAVDVVLLVQCTSPFLVREDVDGVAGAVVEDGADTAVTVAPFHGFVWRDGADEPGGADGGHGVNHDKAYRPRRQDRPQDLLETGAAYAMAAPGFRKHRHRFFGRTDLVRTDPARVLEIDDPHDLARARALAPHFDTARPGALPTAADIDAVVLDFDGTQTDDRVLIDTDGREFVSVHRGDGLGIAALRRSGLTMLILSTEVNPVVAARARKLKLPVLHGIDRKDLALKQWCEEQGIAPERVLYVGNDVNDLPCFALVGWPVAVASAHDAVRGAARAVTTVPGGEGAVREIAAWLLGPSLDALGPASETTPTLTQSKLEHHHHHH | soluble
MSPAFRAMDVEPRAKGVLLEPFVHQVGGHSCVLRFNETTLCKPLVPREHQFYETLPAEMRKFTPQYKGVVSVRFEEDEDRNLCLIAYPLKGDHGIVDIVDNSDCEPKSKLLRWTTNKKHHVLETEKTPKDWVRQHRKEEKMKSHKLEEEFEWLKKSEVLYYTVEKKGNISSQLKHYNPWSMKCHQQQLQRMKENAKHRNQYKFILLENLTSRYEVPCVLDLKMGTRQHGDDASEEKAANQIRKCQQSTSAVIGVRVCGMQVYQAGSGQLMFMNKYHGRKLSVQGFKEALFQFFHNGRYLRRELLGPVLKKLTELKAVLERQESYRFYSSSLLVIYDGKERPEVVLDSDAEDLEDLSEESADESAGAYAYKPIGASSVDVRMIDFAHTTCRLYGEDTVVHEGQDAGYIFGLQSLIDIVTEISEESGE | not soluble
MSPAITRKRFIAGAVCPACSEQDKIQMWEEDGVPHRECVACGYADTLNAQGQSIPKELGTRVNQNAPKPANPKVQSVQFFPNPKLKKKPDA | not soluble
